Legend:
[1] = literature value; cited from earlier work
CXCR4+ SW1417 cells = experiment: Protein internalization of EPIX4 / T22 / biparatopic nanoparticles (flow cytometry); type: cell-based, human; conditions: 1 μM
Method: (§1) Experiments were performed in CXCR4+ cervical and colorectal cell lines (HeLa and SW1417, respectively). HeLa cells were cultured in Eagle's Minimum Essential Medium (Gibco) and SW1417 in Dulbecco's Modified Eagle's Medium (Gibco). Both cell lines were supplemented with 10% fetal bovine serum (Gibco) and incubated in a humidified atmosphere at 37° C. and 5% (HeLa) or 10% (SW1417) of CO2.
(§2) For testing protein internalization, cells were seeded in 24-well plates (Nunc) (30000 cells wells^−1) for 24 h. Briefly, the medium was removed, and cells were washed with PBS. Then protein was incubated at 1 and 2 μM, diluted in OptiPro medium supplemented with L-Glutamine and incubated at different times, at suitable cell line conditions. Then, harsh trypsin digestion (1 mg ml^−1 for 15 min) (Gibco) was carried out to remove protein particles bound to the outer size of the cell membranes. Intracellular green fluorescence was analyzed by flow cytometry on an FACS-Calibur system (Becton Dickinson) using a 15 mW air-cooled argon ion laser at 488 nm excitation. Fluorescence emission was measured with a D detector (530/30 nm band pass filter), and manually corrected by the specific fluorescence of purified protein, to get data representative of the amount of internalized protein for comparative purposes. […]

[2] = Volume size distribution of protein nanoparticles and nanoconjugates by Dynamic Light Scattering (DLS); type: physicochemical; conditions: self-assembled material in storage (carbonate) buffer
Method: Volume size distribution of all protein nanoparticles and nanoconjugates were determined by Dynamic Light Scattering (DLS) at 633 nm in a Zetasizer Nano ZS (Malvern Instruments) in triplicate.
Volume size distribution of protein nanoparticles was determined in a Zetasizer Nano ZS (Malvern Instruments) by Dynamic Light Scattering (DLS) at 633 nm in triplicates.
The integrity of the recombinant proteins was checked by mass spectrometry (MALDI-TOF), TGX (Tris-Glycine eXtended) Stain-Free acrylamide gels electrophoresis (BioRad) and Western Blot analysis using anti-His monoclonal antibody (1:1000; Santa Cruz, ref. 57598). Protein concentration was determined by Bradford (Biorad) assay with an Albumin (Roche) standard curve. GFP fluorescence emission (510 nm) was determined on purified proteins with a Cary Eclipse fluorescence spectrophotometer (Agilent Technologies) using an excitation wavelength of 450 nm. The volume and size distribution of nanoparticles were measured by dynamic light scattering (DLS) at 633 nm through a Zetasizer Nano ZS (Malvern Instruments) using quartz cuvettes.

CXCR4+ HeLa cells = experiment: Protein internalization of EPIX4 / T22 / biparatopic nanoparticles (flow cytometry, AMD3100 competition, confocal); type: cell-based, human; conditions: 1 μM
Method: as §1, §2

Substance | Tm [1] [° C.^] | Tonset, 1 [1] [°C] | Time course of cell uptake (CXCR4+ SW1417 cells) | Nanoparticle size (volume size distribution, DLS) [2] [nm] | Time course of cell uptake (CXCR4+ HeLa cells)
Human Collagen Type I: human collagen type I, literature comparator (Leikina et al) | 40.3 | 38.2 |  |  | 
T22-GFP-H6: Modular protein: T22 ligand, Green Fluorescent Protein scaffold, C-terminal poly-histidine [reference compound] |  | 75 | high uptake at short times | ~11 | high uptake at short times
